Residue numbers refer to the chain shown, from its start.

We go through six molecules from patent publication US12514920B1, “Respiratory syncytial virus mRNA vaccine, and preparation method therefor and use thereof” (Hangzhou Tianlong Pharmaceutical Co., Ltd., priority 2024, dated 2026).

Data set [1] deals with RSV pre-F antibody (3C12). The data set is described as follows: Binding of epitope Φ of RSV F antigen mutants by flow cytometry. The conditions noted are these: for RSV pre-F antibody (3C12) Epitope Φ (%) binding rate: flow cytometry; for Φ/II (%): ratio of epitope Φ (3C12) to epitope II (11A9) binding rate. The method, boiled down: (§1)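 293T cells were transfected with mRNA-LNP (300 ng mRNA) encoding the RSV F mutants and harvested after 16 h. Cells were stained with fluorescent 3C12 (pre-F-specific epitope Φ) or 11A9 (epitope II, pre-F and post-F) for 2 h at 4 °C in the dark, then washed and read by flow cytometry on 1×10^4 cells per measurement.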
(Flow cytometry measures light scatter and fluorescence of single cells or particles in a stream.)

Another data set has as its system RSV F antibody (11A9). Nature of the data set: Binding of epitope II of RSV F antigen mutants by flow cytometry. To be noted: epitope II, antibody 11A9. The method, boiled down:
as §1

The subject of data set [2] is RSV pre-F antibody (3C12). Format: physicochemical. The conditions noted are these: ELISA binding to 3C12; for Stress resistance parameter, Osmotic pressure (mM) 3000: high osmotic pressure 3000 mM; for Stress resistance parameter, Osmotic pressure (mM) 3000 / Stress resistance parameter, Osmotic pressure (mM) 10: room temperature; for Stress resistance parameter, Osmotic pressure (mM) 3000 / Stress resistance parameter, Osmotic pressure (mM) 10 / Stress resistance parameter, pH 3.5 / Stress resistance parameter, pH 10: 60 min; for Stress resistance parameter, Temperature (° C.) 50: incubation at 50° C. for 60 min; for Stress resistance parameter, Osmotic pressure (mM) 10: low osmotic pressure 10 mM; for Stress resistance parameter, pH 3.5: pH 3.5, room temperature; for Stress resistance parameter, pH 10: pH 10, room temperature; for Stress resistance parameter, Temperature (° C.) 4: storage at 4° C. for one week. The method, boiled down: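 RSV F mRNA-vaccine mutants stress-treated: 4° C. for one week, 50° C. for 60 min, low or high osmotic pressure at room temperature for 60 min, acid or base at room temperature for 60 min. Binding to 3C12 (epitope Φ) then measured by ELISA against pre-F trimer standard, HRP anti-human IgG, OD 450/630 nm.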
On the technique in general: In an ELISA, binding on a coated surface is turned into a signal by an enzyme label.

B1: YK-RSV-052 (protein)
chain: QNITEEFYQSTCSAVSKGYLGALRTGWYTSVITIELSNIKENKCNGTDAKVKLIKQELDKYKNAVTDLQLLMQSTPATGSGCAIASGVAVSKVLHLEGEVNKIKSALLSTNKAVVSLSNGVSVLTFKVLDLKNYIDKQLLPILNKQSCSIPNIETVIEFQQKNNRLLEITREFSVNAGVTTPVSTYMLTNSELLSLINDMPITNDQKKLMSNNVQIVRQQSYSIMSIIKEEVLAYVVQLPCYGVIDTPCWKLHTSPLCTTNTKEGSNICLTRTDRGWYCDNAGSVSFFPQAETCKVQSNRVFCDTMNSRTLPSEVNLCNVDIFNPKYDCKIMTSKTDVSSSVITSLGAIVSCYGKTKCTASNKNRGIIKTFSNGCDYVSNKGVDTVSVGNTLYYVNKQEGQSLYVKGEPIINFYDPLVFPSDEFDASISQVNEKINQSLAFIRKSDELLHNVNAGKSTTNIMITTIIIVIIVILLSLIAVGLLLY
Consider B1, for which, in data set [1], the “RSV pre-F antibody (3C12) Epitope Φ (%) binding rate” value was 89.4% and the “Φ/II (%)” value is 95.4%. The “RSV F antibody (11A9) Epitope II (%) binding rate” value (shortened to “RSV F antibody … (%) binding rate”) in the data set on RSV F antibody (11A9) was determined as 93.7%. Further, in data set [2], the “Stress resistance parameter, Osmotic pressure (mM) 3000” value is 0.30 ± 0.06; the “Stress resistance parameter, Temperature (° C.) 50” value turned out to be 0.69 ± 0.09; the “Stress resistance parameter, Osmotic pressure (mM) 10” value (“Stress resistance parameter … (mM) 10” below) is given as 0.88 ± 0.21; the “Stress resistance parameter, pH 3.5” value was 0.80 ± 0.04. In data set [2], the “Stress resistance parameter, pH 10” value was 1.22 ± 0.14 and the “Stress resistance parameter, Temperature (° C.) 4” value was 0.42 ± 0.10.

B2: YK-RSV-058 (protein)
chain: B1 chain with C82S, C241L, S266C, G407C
In the case of B2, in data set [1], the “RSV pre-F antibody (3C12) Epitope Φ (%) binding rate” value stood at 81.2% and the “Φ/II (%)” value is 91.5%. For the same molecule, the “RSV F antibody … (%) binding rate” value in the data set with RSV F antibody (11A9) came out at 88.7%. For the same molecule, in data set [2], the “Stress resistance parameter, Osmotic pressure (mM) 3000” value worked out at 0.50 ± 0.05; the “Stress resistance parameter, Temperature (° C.) 50” value is given as 0.73 ± 0.09; the “Stress resistance parameter … (mM) 10” value is 0.60 ± 0.04; the “Stress resistance parameter, pH 3.5” value is given as 0.72 ± 0.03. For the same molecule, in data set [2], the “Stress resistance parameter, pH 10” value stood at 0.81 ± 0.05 and the “Stress resistance parameter, Temperature (° C.) 4” value was 0.36 ± 0.07.

B3: YK-RSV-002 (protein)
chain: B1 chain with T29H, C82S, A85C, S91C, L143V, S226C, C241L, Y394C, D422S
Turning to B3, in data set [1], the “RSV pre-F antibody (3C12) Epitope Φ (%) binding rate” value was determined as 88.0% and the “Φ/II (%)” value was 94.1%. Further, the “RSV F antibody … (%) binding rate” value in the data set on RSV F antibody (11A9) was determined as 93.5%. Also, in data set [2], the “Stress resistance parameter, Osmotic pressure (mM) 3000” value is on record as 0.44 ± 0.13; the “Stress resistance parameter, Temperature (° C.) 50” value is given as 0.46 ± 0.06; the “Stress resistance parameter … (mM) 10” value is 0.84 ± 0.14; the “Stress resistance parameter, pH 3.5” value stood at 0.65 ± 0.08. In data set [2], the “Stress resistance parameter, pH 10” value came to 0.97 ± 0.14 and the “Stress resistance parameter, Temperature (° C.) 4” value is reported as 0.61 ± 0.11.

B4: YK-RSV-059 (protein)
chain: B1 chain with C82S, C241L, N261C, G407C
On to B4, for which, in data set [1], the “RSV pre-F antibody (3C12) Epitope Φ (%) binding rate” value turned out to be 83.1% and the “Φ/II (%)” value is 92.5%. Besides, the “RSV F antibody … (%) binding rate” value in the data set with RSV F antibody (11A9) came to 89.8%. Besides, in data set [2], the “Stress resistance parameter, Osmotic pressure (mM) 3000” value amounted to 0.44 ± 0.03; the “Stress resistance parameter, Temperature (° C.) 50” value was 0.74 ± 0.07; the “Stress resistance parameter … (mM) 10” value is reported as 0.49 ± 0.02; the “Stress resistance parameter, pH 3.5” value is recorded as 0.73 ± 0.03. In data set [2], the “Stress resistance parameter, pH 10” value stood at 0.82 ± 0.09 and the “Stress resistance parameter, Temperature (° C.) 4” value turned out to be 0.52 ± 0.10.

B5: YK-RSV-046 (protein)
chain: QNITEEFYQSTCSAVSKGYLGALRTGWYTSVITIELSNIKENKCNGTDAKVKLIKQELDKYKNAVTDLQLLMQSTPATGSGSFCGFLLGVGSAIASGVAVSKVLHLEGEVNKIKSALLSTNKAVVSLSNGVSVLTFKVLDLKNYIDKQLLPILNKQSCSIPNIETVIEFQQKNNRLLEITREFSVNAGVTTPVSTYMLTNSELLSLINDMPITNDQKKLMSNNVQIVRQQSYSIMSIIKEEVLAYVVQLPLYGVIDTPCWKLHTSPLCTTNTKEGSNICLTRCDRGWYCDNAGSVSFFPQAETCKVQSNRVFCDTMNSRTLPSEVNLCNVDIFNPKYDCKIMTSKTDVSSSVITSLGAIVSCYGKTKCTASNKNRGIIKTFSNGCDYVSNKGVDTVSVGNTLYYVNKQEGQSLYVKGEPIINFYDPLVFPSDEFDASISQVNEKINQSLAFIRKSDELLHNVNAGKSTTNIMITTIIIVIIVILLSLIAVGLLLY
In the case of B5, in data set [1], the “RSV pre-F antibody (3C12) Epitope Φ (%) binding rate” value is 84.0% and the “Φ/II (%)” value stood at 93.5%. The “RSV F antibody … (%) binding rate” value with RSV F antibody (11A9) is 89.8%. For the same molecule, in data set [2], the “Stress resistance parameter, Osmotic pressure (mM) 3000” value was 0.41 ± 0.02; the “Stress resistance parameter, Temperature (° C.) 50” value was determined as 0.63 ± 0.03; the “Stress resistance parameter … (mM) 10” value is given as 0.46 ± 0.14; the “Stress resistance parameter, pH 3.5” value turned out to be 0.83 ± 0.04. Further, in data set [2], the “Stress resistance parameter, pH 10” value came out at 1.03 ± 0.03 and the “Stress resistance parameter, Temperature (° C.) 4” value is on record as 0.24 ± 0.07.

B6: YK-RSV-051 (protein)
chain: B5 chain with C84L, F86C, C283T, T315C
B6: in data set [1], the “RSV pre-F antibody (3C12) Epitope Φ (%) binding rate” value was 76.8% and the “Φ/II (%)” value turned out to be 88.2%. Besides, the “RSV F antibody … (%) binding rate” value in the data set with RSV F antibody (11A9) was found to be 87.1%. In data set [2], the “Stress resistance parameter, Osmotic pressure (mM) 3000” value stood at 0.44 ± 0.00; the “Stress resistance parameter, Temperature (° C.) 50” value is 0.60 ± 0.08; the “Stress resistance parameter … (mM) 10” value came out at 0.51 ± 0.13; the “Stress resistance parameter, pH 3.5” value is reported as 0.69 ± 0.14. For the same molecule, in data set [2], the “Stress resistance parameter, pH 10” value is listed as 1.00 ± 0.17 and the “Stress resistance parameter, Temperature (° C.) 4” value was determined as 0.33 ± 0.05.
